B1: bi-valent Nb24, product expressed by pGCB108-ITR130-AMDF1Nb24-5-(G4S)4-Nb24-5-HA (VHH)
chain: EVQLQESGGGLVQPGGSLRLSCTASGFTFDDPDVGWFRQAPGNECELVSTISKDGSTYYTDSVKGRFTISRDYAKNTVYLQMNSLRAEDTAVYYCAADSNPIAPIRTCLGWYNYWGQGTLVTVSSGGGGSGGGGSGGGGSGGGGSEVQLQESGGGLVQPGGSLRLSCTASGFTFDDPDVGWFRQAPGNECELVSTISKDGSTYYTDSVKGRFTISRDYAKNTVYLQMNSLRAEDTAVYYCAADSNPIAPIRTCLGWYNYWGQGTLVTVSSYPYDVPDYA
notes: Two copies of Nb24 in a single polypeptide; supernatant of transfected Expi293 cells; also called 24-5-G4S4-24-5
B2: mono-valent Nb24 with HA tag, product expressed by pGCB108-ITR130-AMDF1huNb24-5-hGHpA (VHH)
VHH: EVQLQESGGGLVQPGGSLRLSCTASGFTFDDPDVGWFRQAPGNECELVSTISKDGSTYYTDSVKGRFTISRDYAKNTVYLQMNSLRAEDTAVYYCAADSNPIAPIRTCLGWYNYWGQGTLVTVSS
notes: Used as supernatant of transfected Expi293 cells, detected by anti-HA; The junction between Nb24 and the HA tag is not spelled out; also called HuNb24-5-HA; Nb24-5-HA
B3: bi-valent Nb24, product expressed by pGCB108-ITR130-AMDF1Nb24-5-(G4S)1-Nb24-5-HA (VHH)
chain: EVQLQESGGGLVQPGGSLRLSCTASGFTFDDPDVGWFRQAPGNECELVSTISKDGSTYYTDSVKGRFTISRDYAKNTVYLQMNSLRAEDTAVYYCAADSNPIAPIRTCLGWYNYWGQGTLVTVSSGGGGSEVQLQESGGGLVQPGGSLRLSCTASGFTFDDPDVGWFRQAPGNECELVSTISKDGSTYYTDSVKGRFTISRDYAKNTVYLQMNSLRAEDTAVYYCAADSNPIAPIRTCLGWYNYWGQGTLVTVSSYPYDVPDYA
notes: Two copies of Nb24 in a single polypeptide; supernatant of transfected Expi293 cells; also called 24-5-G4S1-24-5
B4: Beovu-scFv with HA tag, product expressed by pGCB108-ITR130-AMDF1-Beovu-scFv (scFv)
scFv: EIVMTQSPSTLSASVGDRVIITCQASEIIHSWLAWYQQKPGKAPKLLIYLASTLASGVPSRFSGSGSGAEFTLTISSLQPDDFATYYCQNVYLASTNGANFGQGTKLTVLGGGGGSGGGGSGGGGSGGGGSEVQLVESGGGLVQPGGSLRLSCTASGFSLTDYYYMTWVRQAPGKGLEWVGFIDPDDDPYYATWAKGRFTISRDNSKNTLYLQMNSLRAEDTAVYYCAGGDHNSGWGLDIWGQGTLVTVSSYPYDVPDYA
notes: Benchmark anti-VEGF scFv; supernatant of transfected Expi293 cells; also called Beovu-scFv-HA; F1F3-HA
B5: bi-valent Nb24, product expressed by pGCB108-ITR130-AMDF1Nb24-5-(G4S)3-Nb24-5-HA (VHH)
chain: EVQLQESGGGLVQPGGSLRLSCTASGFTFDDPDVGWFRQAPGNECELVSTISKDGSTYYTDSVKGRFTISRDYAKNTVYLQMNSLRAEDTAVYYCAADSNPIAPIRTCLGWYNYWGQGTLVTVSSGGGGSGGGGSGGGGSEVQLQESGGGLVQPGGSLRLSCTASGFTFDDPDVGWFRQAPGNECELVSTISKDGSTYYTDSVKGRFTISRDYAKNTVYLQMNSLRAEDTAVYYCAADSNPIAPIRTCLGWYNYWGQGTLVTVSSYPYDVPDYA
notes: Two copies of Nb24 in a single polypeptide; supernatant of transfected Expi293 cells; also called 24-5-G4S3-24-5
B6: bi-valent Nb24, product expressed by pGCB108-ITR130-AMDF1Nb24-5-(G4S)2-Nb24-7-HA (VHH)
chain: EVQLQESGGGLVQPGGSLRLSCTASGFTFDDPDVGWFRQAPGNECELVSTISKDGSTYYTDSVKGRFTISRDYAKNTVYLQMNSLRAEDTAVYYCAADSNPIAPIRTCLGWYNYWGQGTLVTVSSGGGGSGGGGSEVQLQESGGGLVQPGGSLRLSCTASGFTFDDPDVGWFRQAPGNECELVSTISKDGSTYYTDSVKGRFTISRDYAKNTVYLQMNSLRAEDTAVYYCAADSNPIAPIRTCLGWYNYWGQGTLVTVSSYPYDVPDYA
notes: also called 24-5-G4S2-24-7
B7: bi-valent Nb24, product expressed by pGCB108-ITR130-AMDF1Nb24-5-(G4S)2-Nb24-5-HA (VHH)
chain: EVQLQESGGGLVQPGGSLRLSCTASGFTFDDPDVGWFRQAPGNECELVSTISKDGSTYYTDSVKGRFTISRDYAKNTVYLQMNSLRAEDTAVYYCAADSNPIAPIRTCLGWYNYWGQGTLVTVSSGGGGSGGGGSEVQLQESGGGLVQPGGSLRLSCTASGFTFDDPDVGWFRQAPGNECELVSTISKDGSTYYTDSVKGRFTISRDYAKNTVYLQMNSLRAEDTAVYYCAADSNPIAPIRTCLGWYNYWGQGTLVTVSSYPYDVPDYA
notes: Two copies of Nb24 in a single polypeptide; supernatant of transfected Expi293 cells; also called 24-5-G4S2-24-5

Legend:
[1] = biological target: T1, VEGFA-165 (R&D systems 293-VE/CF) (human, UniProt P15692-4 27-191); test: ELISA as in Example 5, VEGFA-165 coated, anti-HA detection
T1 construct: Coated on ELISA plates or added in solution to reporter cells; also called human VEGF; human VEGFA
T1 sequence (P15692 other isoform, or with tags, fused parts or gaps limits assumed): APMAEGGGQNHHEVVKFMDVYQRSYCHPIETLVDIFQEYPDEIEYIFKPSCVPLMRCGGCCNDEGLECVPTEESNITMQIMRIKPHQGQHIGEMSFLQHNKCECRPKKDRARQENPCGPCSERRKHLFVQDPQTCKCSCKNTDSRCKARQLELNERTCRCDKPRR
Protocol: (§1) After removing the blocker, the primary antibody (rabbit anti-HA, Thermo, PA1-985) was diluted (1:5000) with the blocking buffer (StartingBlock™ T20 (TBS) Blocking Buffer, Catalog number: 37543 of Thermo Fisher Scientific), and added to ELISA plate (50 μl/well), followed by the incubation at RT for 1h with 250 rpm gentle shaking. After washing with 1×TBST buffer for 3 times, the secondary antibody (Goat anti-rabbit-HRP, Invitrogen, 3146) was diluted (1:5000) with the blocking buffer, and added to the ELISA plate (50 μl/well), followed by the incubation at RT for 1h with gentle shaking. After washing the ELISA plate with 1×TBST for 3 times, the TMB substrate (Thermo Scientific, REF34028) was added the plate (50 μl/well); after the incubation at RT for 5-10 min, 2M H₂SO₄ was added to stop the TMB reaction. OD450 and OD525 of the ELISA plate were detected.

[2] = biological target: T1, VEGFA-165 (R&D systems 293-VE/CF); test: competitive ELISA as in Example 7: inhibition of VEGFR2/KDR Fc binding to coated VEGFA-165
Protocol: After removing the blocker, the detection antibody (rabbit anti-human FC HRP, Thermo) diluted 1:5000 with the blocking buffer, and added 50 μl/well incubated at RT for 1h with 250 rpm gentle shaking. After washing the ELISA plate with 1×TBST for 3 times, the TMB substrate was added the plate (50 μl/well); after the incubation at RT for 5-10 min, 2M H₂SO₄ was added to stop the TMB reaction. OD450 and OD525 of the ELISA plate were detected.
The mono-valent and bi-valent Nb24s in the supernatants were quantified by western blot as described in Example 2, and diluted to a series of concentrations.

[3] = biological target: T1, VEGFA-165 (R&D systems 293-VE/CF); test: ELISA, VEGFA-165 coated, supernatant, anti-HA detection
Protocol: as §1

| Binder | EC50 [1] | further results |
| --- | --- | --- |
| B1 | 464 nM |  |
| B2 |  | IC50 [2]: 132 nM |
| B3 | 400 nM |  |
| B4 |  | binding result [3]: binds |
| B5 | 346 nM |  |
| B6 |  | IC50 [2]: 25.6 nM; fold better IC50 than mono-valent Nb24 [2]: 5 fold |
| B7 | 376 nM |  |
